The results in this text go back to article PMC5910400 (2018).

Some targets named below: CXCL5 (human); CXCL3 (human, UniProt P19876 35-107); CXCL8 (human); CXCL2 (human, UniProt P19875 35-107); CXCL1 (human, UniProt P09341 35-107); CXCL6 (human).
Common to all, as to test: BLI
(In general: Biolayer interferometry detects binding as a change in optical thickness at a sensor tip.)

For experiment [1], the target named is P1156:G4S:P1243 two-warhead evasin (Ixodes ricinus | Amblyomma americanum, UniProt V5HBW0;A0A0C9S461).
The target of experiment [2] is P1243:G4S:P1156 two-warhead evasin (Amblyomma americanum | Ixodes ricinus, UniProt A0A0C9S461;V5HBW0).

Residue numbers refer to the chain shown, from its start.

Sequence of CXCL8 (human) (chain, as listed by the source): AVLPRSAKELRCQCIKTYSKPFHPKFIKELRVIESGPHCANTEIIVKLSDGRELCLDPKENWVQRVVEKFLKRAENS

B1: CCL4L1 (protein)
chain: APMGSDPPTACCFSYTARKLPRNFVVDYYETSSLCSQPAVVFQTKRGKQVCADPSESWVQEYVYDLELN
As to B1, the results for the Kd in experiment [1] and in experiment [2] were 15 nM and 14 nM, respectively.

B2: CCL4 (protein)
chain: B1 chain with G47S
In the case of B2, the Kd in experiment [1] and in experiment [2] was 12 nM in each case.

B3: CCL27 (protein)
chain: FLLPPSTACCTQLYRKPLSDKLLRKVIQVELQEADGDCHLQAFVLHLAQRSICIHPQNPSLSQWFEHQERKLHGTLPKLNFGMLRKMG
Regarding B3, the Kd in experiment [1] was 17 nM; in experiment [2], 23 nM.

B4: CCL13 (ligand)
chain: not shown
For B4, the dissociation constant (Kd) in experiment [1] came to 0.7 nM; in experiment [2], 1.5 nM.

B5: CCL11 (protein)
chain: not shown
B5: the dissociation constant Kd in experiment [1] amounted to 1.7 nM; in experiment [2], 5.1 nM.

B6: CCL14 (protein)
chain: TKTESSSRGPYHPSECCFTYTTYKIPRQRIMDYYETNSQCSKPGIVFITKRGHSVCTNPSDKWVQDYIKDMKEN
Turning to B6, the dissociation constant (Kd) is 1.1 nM in experiment [1] and 2.1 nM in experiment [2].

B7: CCL21 (ligand)
chain: SDGGAQDCCLKYSQRKIPAKVVRSYRKQEPSLGCSIPAILFLPRKRSQAELCADPKELWVQQLMQHLDKTPSPQKPAQGCRKDRGASKTGKKGKGSKGCKRTERSQTPKGP
B7 came in with a dissociation constant (Kd) in experiment [1] of 29 nM.

B8: CCL3 (ligand)
chain: SLAADTPTACCFSYTSRQIPQNFIADYFETSSQCSKPGVIFLTKRSRQVCADPSEEWVQKYVSDLELSA
For B8, the Kd in experiment [2] stood at 25 nM.

B9: CCL19 (protein)
chain: GTNDAEDCCLSVTQKPIPGYIVRNFHYLLIKDGCRVPAVVFTTLRGRQLCAPPDQPWVERIIQRLQRTSAKMKRRSS
In the case of B9, the equilibrium dissociation constant (Kd) in experiment [1] turned out to be 3 nM; in experiment [2] it was 2.5 nM.

B10: CCL23 (ligand)
chain: RVTKDAETEFMMSKLPLENPVLLDRFHATSADCCISYTPRSIPCSLLESYFETNSECSKPGVIFLTKKGRRFCANPSDKQVQVCMRMLKLDTRIKTRKN
In the case of B10, the Kd in experiment [1] was 0.098 nM; in experiment [2] it was 0.37 nM.

B11: CCL8 (protein)
chain: QPDSVSIPITCCFNVINRKIPIQRLESYTRITNIQCPKEAVIFKTKRGKEVCADPKERWVRDSMKHLDQIFQNLKP
With B11, the Kd in experiment [1] turned out to be 84 nM; in experiment [2], 93 nM.

B12: CCL18 (protein)
chain: AQVGTNKELCCLVYTSWQIPQKFIVDYSETSPQCPKPGVILLTKRGRQICADPNKKWVQKYISDLKLNA
For the molecule B12, the Kd in experiment [1] is 0.001 nM; in experiment [2], 0.3 nM.

B13: CCL16 (protein)
chain: QPKVPEWVNTPSTCCLKYYEKVLPRRLVVGYRKALNCHLPAIIFVTKRNREVCTNPNDDWVQEYIKDPNLPLLPTRNLSTVKIITAKNGQPQLLNSQ
Regarding B13, the values for the Kd in experiment [1] and in experiment [2] were 0.65 nM and 0.93 nM, respectively.

B14: CCL15 (protein)
chain: QFTNDAETELMMSKLPLENPVVLNSFHFAADCCTSYISQSIPCSLMKSYFETSSECSKPGVIFLTKKGRQVCAKPSGPGVQDCMKKLKPYSI
Consider B14, for which the figures for the dissociation constant (Kd) in experiment [1] and in experiment [2] were 12 nM and 11 nM, respectively.

B15: CCL24 (protein)
chain: VVIPSPCCMFFVSKRIPENRVVSYQLSSRSTCLKAGVIFTTKKGQQFCGDPKQEWVQRYMKNLDAKQKKASPRARAVAVKGPVQRYPGNQTTC
As for B15, the dissociation constant (Kd) is 4.5 nM in experiment [1] and 9.4 nM in experiment [2].

B16: CCL3L1 (ligand)
chain: APLAADTPTACCFSYTSRQIPQNFIADYFETSSQCSKPSVIFLTKRGRQVCADPSEEWVQKYVSDLELSA
B16: the Kd in experiment [1] came to 5.3 nM; in experiment [2], 6.4 nM.

B17: CCL17 (protein)
chain: ARGTNVGRECCLEYFKGAIPLRKLKTWYQTSEDCSRDAIVFVTVQGRAICSDPNNKRVKNAVKYLQSLERS
As for B17, the values for the Kd in experiment [1] and in experiment [2] were 5.4 nM and 4.5 nM, respectively.

B18: CCL5 (ligand)
chain: SPYSSDTTPCCFAYIARPLPRAHIKEYFYTSGKCSNPAVVFVTRKNRQVCANPEKKWVREYINSLEMS
With B18, the Kd in experiment [1] is 2.6 nM; in experiment [2], 3.4 nM.

B19: P1156 (evasin from Ixodes ricinus), purified, C-terminal StrepII:His tag (natural protein)
chain: DGGADDDNELFTVQYCGMNCTKDEGGTWTGCTGKKEGCKCYHESGKNYGLCLSTEYTDFSQYGNPSDSEIEAAKPKRSDTLSH
With B19, the Kd with CXCL5 amounted to 30 nM; with CXCL3 it was 70 nM; with CXCL8, 2.9 nM; with CXCL2 it was 51 nM; with CXCL1, 5.8 nM; in the experiment with CXCL6 it was 63 nM.

As usually defined, the Kd is a measure of binding affinity in units of concentration. A low value points to tighter binding.
